Experimental data as given in patent publication US20200407424A1 (FRAUNHOFER GESELLSCHAFT ZUR F RDERUNG DER ANGEWANDTEN …, published 2020).
Square brackets hold non-standard residues; d marks the D form. Ends that are not written are not given here. Cit = NC(=O)NCCC[C@H](N)C(=O)O

B1: vimentin peptide ref no 13 (peptide)
peptide: YATRSSAVRLRSSVP
B2: citrullinated vimentin peptide ref no 95 (peptide)
peptide: Y[Cit][Cit]MFGGPGTAS[Cit]PS
B3: citrullinated vimentin peptide ref no 132 (peptide)
peptide: F[Cit]QDVDNASLA[Cit]LDL
B4: vimentin peptide ref no 64 (peptide)
peptide: STEYRRQVQSLTCEV
B5: vimentin peptide ref no 77 (peptide)
peptide: REYQDLLNVKMALDI
B6: citrullinated vimentin peptide ref no 93 (peptide)
peptide: MST[Cit]SVSSSSY[Cit][Cit]MF
B7: vimentin peptide ref no 79 (peptide)
peptide: MALDIEIATYRKLLE
B8: vimentin peptide ref no 42 (peptide)
peptide: FRQDVDNASLARLDL
B9: vimentin peptide ref no 27 (peptide)
peptide: LLAELEQLKGQGKSR
B10: citrullinated vimentin peptide ref no 156 (peptide)
peptide: XEYQDLLNVKMALDI
modifications: citrulline (Xaa) at 1
B11: vimentin peptide ref no 55 (peptide)
peptide: DVRQQYESVAAKNLQ
B12: citrullinated vimentin peptide ref no 99 (peptide)
peptide: VTTST[Cit]TYSLGSAL[Cit]
B13: vimentin peptide ref no 32 (peptide)
peptide: ELRRQVDQLTNDKAR
B14: citrullinated vimentin peptide ref no 117 (peptide)
peptide: LLAELEQLKGQGKS[Cit]
B15: vimentin peptide ref no 34 (peptide)
peptide: NDKARVEVERDNLAE
B16: vimentin peptide ref no 16 (peptide)
peptide: GVRLLQDSVDFSLAD
B17: vimentin peptide ref no 41 (peptide)
peptide: NTLQSFRQDVDNASL
B18: citrullinated vimentin peptide ref no 98 (peptide)
peptide: SS[Cit]SYVTTST[Cit]TYSL
B19: vimentin peptide ref no 59 (peptide)
peptide: YKSKFADLSEAANRN
B20: citrullinated vimentin peptide ref no 150 (peptide)
peptide: FAVEAANYQDTIG[Cit]L
B21: citrullinated vimentin peptide ref no 159 (peptide)
peptide: XKLLEGEESXISLPL
modifications: citrulline (Xaa) at 1, 10
B22: vimentin peptide ref no 71 (peptide)
peptide: FAVEAANYQDTIGRL
B23: citrullinated vimentin peptide ref no 145 (peptide)
peptide: STEY[Cit][Cit]QVQSLTCEV
B24: vimentin peptide ref no 20 (peptide)
peptide: FKNTRTNEKVELQEL
B25: vimentin peptide ref no 14 (peptide)
peptide: SAVRLRSSVPGVRLL
B26: vimentin peptide ref no 92 (peptide)
peptide: GQVINETSQHHDDLE
B27: vimentin peptide ref no 44 (peptide)
peptide: ARLDLERKVESLQEE
B28: a-enolase peptide ref no 49 (peptide)
peptide: VIGMDVAASEFFRSG
B29: citrullinated a-enolase peptide ref no 313 (peptide)
peptide: K[Cit]IAKAVNEKSCNCL
modifications: cysteine pairing not given here
B30: citrullinated a-enolase peptide ref no 301 (peptide)
peptide: QEFMILPVGAANF[Cit]E
B31: citrullinated a-enolase peptide ref no 302 (peptide)
peptide: LPVGAANF[Cit]EAM[Cit]IG
B32: citrullinated a-enolase peptide ref no 287 (peptide)
peptide: MSILKIHA[Cit]EIFDS[Cit]
B33: citrullinated a-enolase peptide ref no 289 (peptide)
peptide: IFDS[Cit]GNPTVEVDLF
B34: citrullinated a-enolase peptide ref no 297 (peptide)
peptide: [Cit]YMGKGVSKAVEHIN
B35: citrullinated a-enolase peptide ref no 324 (peptide)
peptide: KAKFAG[Cit]NF[Cit]NPLAK
B36: citrullinated a-enolase peptide ref no 292 (peptide)
peptide: F[Cit]AAVPSGASTGIYE
B37: a-enolase peptide ref no 34 (peptide)
peptide: QEFMILPVGAANFRE
B38: citrullinated a-enolase peptide ref no 305 (peptide)
peptide: VIGMDVAASEFF[Cit]SG
B39: citrullinated a-enolase peptide ref no 300 (peptide)
peptide: Y[Cit]HIADLAGNSEVIL
B40: corresponding non-citrullinated peptide of a-enolase peptide 300 (peptide)
peptide: YRHIADLAGNSEVIL
B41: corresponding non-citrullinated peptide of a-enolase peptide 302 (peptide)
peptide: LPVGAANFREAMRIG
B42: corresponding non-citrullinated peptide of a-enolase peptide 292 (peptide)
peptide: FRAAVPSGASTGIYE
B43: corresponding non-citrullinated peptide of a-enolase peptide 324 (peptide)
peptide: KAKFAGRNFRNPLAK

What follows are binders tested against T1, recombinant MHC class II protein of the HLA DRB1 0101 genotype (human) (assay: in vitro binding assay).
T1 construct: construct not described
B1: binds. B2: binds. B3: binds. B4: binds. B5: binds. B6: no binding. B7: binds. B8: binds. B9: binds. B10: binds. B11: binds. B12: binds. B13: binds. B14: binds. B15: no binding. B16: no binding.

The binders below were run against T2, recombinant MHC class II protein of the HLA DRB1 0405 genotype (human) (assay: in vitro binding assay).
T2 construct: construct not described
B4: binds. B5: binds. B17: binds. B14: no binding. B15: no binding. B18: binds.

Each binder was assayed against T3, recombinant MHC class II protein of the HLA DRB1 0401 genotype (human) (assay: in vitro binding assay).
T3 construct: construct not described; also called HLA-DR0401
B1: no binding. B2: binds. B4: binds. B19: binds. B6: binds. B17: binds. B7: no binding. B8: binds. B11: binds. B20: binds. B12: binds. B15: binds. B21: binds. B16: binds. B22: binds. B23: binds. B24: binds. B18: binds.

The binders below were run against T4, recombinant MHC class II protein of the HLA DRB1 0404 genotype (human) (assay: in vitro binding assay).
T4 construct: construct not described
B25: binds. B26: binds. B6: binds. B17: binds. B7: binds. B8: no binding. B9: no binding. B13: binds. B14: no binding. B27: binds. B21: no binding.

Each binder was assayed against T5, recombinant MHC class II protein of the HLA DRB1 1001 genotype (human) (assay: in vitro binding assay).
T5 construct: construct not described
B28: no binding. B29: no binding. B30: no binding. B31: no binding. B32: binds. B33: no binding. B34: no binding. B35: no binding. B36: no binding. B37: no binding. B38: no binding. B39: no binding.

Biological target: T1, recombinant MHC class II protein of the …
Experiment: in vitro binding assay
Remark: another data set of the same source
B28: no binding. B29: binds. B30: no binding. B31: no binding. B32: binds. B33: no binding. B34: no binding. B35: no binding. B36: binds. B37: binds. B38: no binding. B39: no binding.

Biological target: T2, recombinant MHC class II protein of the …
Experiment: in vitro binding assay
Remark: another data set of the same source
B28: binds. B29: binds. B30: binds. B31: binds. B32: binds. B33: binds. B34: binds. B35: binds. B36: binds. B37: binds. B38: binds. B39: binds.

What follows are binders tested against T6, recombinant MHC class II protein of the HLA DRB1 0408 genotype (human) (assay: in vitro binding assay).
T6 construct: construct not described
B28: binds. B29: no binding. B30: no binding. B31: no binding. B32: no binding. B33: no binding. B34: no binding. B35: no binding. B36: no binding. B37: no binding. B38: no binding. B39: no binding.

Biological target: T4, recombinant MHC class II protein of the …
Experiment: in vitro binding assay
Remark: another data set of the same source
B28: binds. B29: binds. B30: binds. B31: binds. B32: binds. B33: no binding. B34: no binding. B35: binds. B36: binds. B37: binds. B38: no binding. B39: no binding.

Biological target: T3, recombinant MHC class II protein of the …
Experiment: in vitro binding assay
Remark: another data set of the same source
B40: no binding. B29: binds. B30: binds. B41: no binding. B42: no binding. B31: binds. B32: binds. B43: no binding. B33: binds. B34: binds. B35: binds. B36: binds. B38: binds. B39: binds.
